Legend:
[1] = molecular target: T1, Raptor1B fused N- or C-terminally to the GSrhino TAP tag, TAP-purified from PSB-D cell cultures
T1 chain: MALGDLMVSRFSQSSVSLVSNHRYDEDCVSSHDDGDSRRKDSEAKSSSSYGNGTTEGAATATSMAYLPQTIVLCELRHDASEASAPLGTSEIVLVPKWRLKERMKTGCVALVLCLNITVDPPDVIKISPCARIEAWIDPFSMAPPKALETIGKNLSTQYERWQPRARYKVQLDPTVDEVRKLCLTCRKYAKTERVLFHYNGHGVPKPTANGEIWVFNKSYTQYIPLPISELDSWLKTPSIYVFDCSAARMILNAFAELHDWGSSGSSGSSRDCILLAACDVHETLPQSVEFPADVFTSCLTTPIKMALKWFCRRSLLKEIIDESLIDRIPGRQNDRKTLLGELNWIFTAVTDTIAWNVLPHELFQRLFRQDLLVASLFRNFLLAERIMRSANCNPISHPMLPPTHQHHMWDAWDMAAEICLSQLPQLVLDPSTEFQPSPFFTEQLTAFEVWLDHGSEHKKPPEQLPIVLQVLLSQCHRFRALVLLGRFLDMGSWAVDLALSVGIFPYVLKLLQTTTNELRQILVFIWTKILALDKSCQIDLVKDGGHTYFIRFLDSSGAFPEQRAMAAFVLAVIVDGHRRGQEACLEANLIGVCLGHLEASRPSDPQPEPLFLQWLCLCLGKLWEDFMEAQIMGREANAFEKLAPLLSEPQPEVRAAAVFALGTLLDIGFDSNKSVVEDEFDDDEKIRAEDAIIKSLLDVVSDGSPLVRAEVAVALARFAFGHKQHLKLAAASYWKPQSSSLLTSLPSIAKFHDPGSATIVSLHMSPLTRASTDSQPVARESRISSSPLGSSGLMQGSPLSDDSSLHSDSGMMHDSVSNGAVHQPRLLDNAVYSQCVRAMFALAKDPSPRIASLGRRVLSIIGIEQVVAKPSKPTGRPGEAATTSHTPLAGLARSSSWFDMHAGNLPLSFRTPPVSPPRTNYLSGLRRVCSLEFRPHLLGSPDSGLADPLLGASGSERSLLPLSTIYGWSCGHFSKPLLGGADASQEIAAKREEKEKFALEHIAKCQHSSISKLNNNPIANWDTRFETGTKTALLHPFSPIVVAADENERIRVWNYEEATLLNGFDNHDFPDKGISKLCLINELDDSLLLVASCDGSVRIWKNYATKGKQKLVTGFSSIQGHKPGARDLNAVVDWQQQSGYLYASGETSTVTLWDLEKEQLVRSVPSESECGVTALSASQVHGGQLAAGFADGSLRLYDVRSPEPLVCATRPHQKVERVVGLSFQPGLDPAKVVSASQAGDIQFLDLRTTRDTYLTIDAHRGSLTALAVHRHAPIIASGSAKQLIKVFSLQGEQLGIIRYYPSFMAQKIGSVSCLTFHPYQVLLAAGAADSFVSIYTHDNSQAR

[2] = molecular target: T2, LST8-1 fused C-terminally to the GSrhino tag, TAP-purified from PSB-D cell cultures, Q9LV27
T2 chain: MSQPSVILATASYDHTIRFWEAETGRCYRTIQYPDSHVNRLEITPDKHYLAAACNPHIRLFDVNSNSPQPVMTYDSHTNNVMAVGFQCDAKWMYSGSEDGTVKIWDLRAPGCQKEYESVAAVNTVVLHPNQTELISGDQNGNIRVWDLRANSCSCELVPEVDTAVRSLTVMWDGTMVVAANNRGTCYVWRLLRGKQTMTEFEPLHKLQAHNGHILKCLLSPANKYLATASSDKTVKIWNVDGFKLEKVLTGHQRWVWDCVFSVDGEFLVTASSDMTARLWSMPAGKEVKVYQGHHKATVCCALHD

B1: Recombinant RSK1 (ARSK1) kinase, His-MBP fusion produced in E. coli BL21 (protein)
chain: MAVFKKKKTSLTSLFLGCYKAKNVSKYEGGEKAVMKIRTCPAFKRLSLSDISDPSSPMSVMDDLSHSFTSQKLRLFTLSELRVITHNFSRSNMLGEGGFGPVYKGFIDDKVKPGIEAQPVAVKALDLHGHQGHREWLAEILFLGQLSNKHLVKLIGFCCEEEQRVLVYEYMPRGSLENQLFRRNSLAMAWGIRMKIALGAAKGLAFLHEAEKPVIYRDFKTSNILLDSDYNAKLSDFGLAKDGPEGEHTHVTTRVMGTQGYAAPEYIMTGHLTTMNDVYSFGVVLLELITGKRSMDNTRTRREQSLVEWARPMLRDQRKLERIIDPRLANQHKTEAAQVAASLAYKCLSQHPKYRPTMCEVVKVLESIQEVDIRKHDGNNNKEGKKFVDINKFRHHRKGKRRVNIAYSDSLVYKESKAKQNDGI
in vitro kinase assay with ATP-P32, SDS-PAGE and autoradiography [1]: In the presence of ARSK1, the RAPTOR1B phosphosignal (lanes 2 and 3, rectangle) is higher compared to the control (lane 4; no ARSK1)
in vitro kinase assay [2]: ARSK1 could not phosphorylate these two proteins

— patent publication US20250215444
